This series in a line: soluble on expression in E. coli; label from the status in PepcDB or PDB records.
Consider “MKTEEELLNRMQAYCARTEHCRSEVAAKLRQAGTDELMIERLLQRLVEDRFIDEDRFARAYARDKYRFNGWGPKRIALELVKRHIPDSIIGSTLLDLEEGEDKIEDNLPRLLERKLRSIKDTDDRGRLHRLVRWAVGRGFEYEQVMREASRLLRKGYEEDS”, for which the “soluble on expression in E. coli” value was “not soluble”.

On to “MKTFKAVRFQIVNEHGRIIEYELEDGVIINKEESGTGWLLEIVISNEHYETFKEYQDNEQLLDIRVVITRPANDPALFESTVKSIKNFKTTMSIVFECHIYTLRQQYAESLLEQLIDDGLSGEELKKSFNRMMQSKPKLKDEKLEE”, for which the “soluble on expression in E. coli” value is on record as “not soluble”.

For the sequence “MKTFPLQSLTLAEAQQKQFALVDTICRHFPGSEFLAGGDLGLTPSLNQPRITQRVEQVLADAFHAQAAALVQGAGTGAIRAGLAALLKPGQRLLVHDAPVYPTTRVIIEQMGLTLITADFNDLSALKQVVDEQQPDAALVQHTRQQPQDSYVLADVLATLRAAGVPALTDDNYAVMKVARIGCECGANVSTFSCFKLFGPEGVGAVVGDADVISRIRATLYSGGSQIQGSQALEVLRGLVFAPLIHAVKAGVSERLLALLNGGAVAEVKSAVIANAQSKVLIVEFHQLIAARVLEEAQKRGALPYPVGAESKYEIPPLFYRLSGTFRQANPQLEHCAIRINPNRSGEETVLRILRESIASI”, the “soluble on expression in E. coli” value was “not soluble”.

For the sequence “MKTFTVQFHREDDVEAMNVGKLSQEDFDKATEGGTRHLFDLDTNIGYFVFFDAEDNEGKVSYLMLQYEEDNEDPSACYSFELKDFYEFMALYLNDLEFAEEEEMAEDGEEEYGPIHHLAHLLYHIVEKGKTVEV”, the “soluble on expression in E. coli” value is “not soluble”.

For the sequence “MKTIHIYTNGRFEEKQSGIVREFPLVLHVNGREIATLISSPHDLRFLVAGFLRNQGFVERAEDFHMLAVCDDFGIANARIRGELPERLKPVLTSGCGTGVTFTLETPKIPPPLALPAITTDAVFRLMEELARRADNYRSHGGIHSAAVGDGEGNLLLFAEDIGRHNTLDRIAGEALFKGIDLAGTILVTSGRVSTEMAAKCARLGIALIASRTSATDMAVKMCDEAGIPLIGYVRGGKFTVYAHHERLAMAPPVGAIHELPLPASAQGRRIPGITGVILAGGQSRRMGSNKALLPYKGGRFIEAIHRQLAEIFDEVLLVTNNPEQYDFLPCRKVADIHPGMGALAGIHAGLHHAANPAAFMVACDMPYLNSDLIRHLATLADPGGVLIPESPAGLEPLHAVYGKGCLAAIETTLLSGERRIVSFFGRTNVNRVNAEQVALFDPDYATFSNINTPVDYYRLRDGERDELDAALGADRIAGLEHHHHHH”, the “soluble on expression in E. coli” value is on record as “not soluble”.

Turning to “MKTKIIGVLGLGIFGQTLAQELSNFEQDVIAIDSNPENVQAVAEVVTKAAIGDITDLAFLKHIGISDCDTVIIATGNSLESSVLAVMHCKKLGVPQVIAKARNLVYEEVLYEIGADLVISPERESGQNVAANLMRNKITDVFQIESDISVIEFKIPKSWVGKTVEQLNIRHKFDLNLIGIRKAKNKPVDTEVPINSPLEEGIILVAIANSDAFQRYDYLGYFNLEHHHHHH”, the “soluble on expression in E. coli” value is given as “soluble”.

For “MKTLEKRMKALDKRIMKFGKSLEGRLDARLIESALDYIHYSERFLAFEILCTYIEDFDVRLTEQESREISFINKEFEIESTSD”, the “soluble on expression in E. coli” value is “not soluble”.

For the sequence “MKTLFLQYPACSTCQKAKKWLIENNIEYTNRLIVDDNPTVEELKAWIPLSGLPVKKFFNTSGVVYKELKLSSKLPTMTEEEQIALLATNGKLVKRPLVVTERFVLVGFKPEEWEKL”, the “soluble on expression in E. coli” value was “not soluble”.

Turning to “MKTMRKILEIDEERCNGCGLCVLDCAEGAIAIVDGKAKIVSDSFCDGLGACIGSCPQDALHIIEREAVPFDEEAAMEHVRSQGGTPEANHGHGHGAGTPHRHGQSAEHGGHGRIPGHGGCPGAAMRRFDSAESPAFAVAEGTVKGPGHWPLKIRLVPPTAPFLKGADVLVAADCAAAASPIFHSHFAAGKVVLIGCPKFDDTEAYAERLADILRVSGIASLTVLRMEVPCCRGLSAAAEKARVLSGTSLVLKEVIMTCAGGPAAPAPLSSL”, the “soluble on expression in E. coli” value is given as “soluble”.

In the case of “MKTVGVVLSGCGVLDGAEIHESVLTMLALDRAGAEVLFFAPDKPQLHVINHITGEIVAEERNVLVESARIARGLITPLSAADPEVLDALIVPGGFGAAKNLCDFAIKGGECSVEPDLYKLIQLMHKSGKPIGLMCISPVMLPKLLGKPIRLTIGNDPDTIDAIEIMGGEHVICPADDVVIDLENKVVTTPAYMLAGSISEAAKGIDKLVTKVLDLTE”, the “soluble on expression in E. coli” value was “not soluble”.

In the case of “MKTVPPVHRIALLFNGSKIYDRGIISGIGNYLSSTRVSWDLFLEEDFLCRLKGIERWQGDGIIADFDDPLIGEALAGIRLPVVAVGGSYQDERAYPKGIPYVATDNHALIKAAYEHLIEAGLTRFACFSLPEAQANRWAQEREKAFRHLLQRDGLHAEVYRGLGTSAPLWDSAVEQQITWLQSLPKPIGIIAVTDARARQLLQACLTAGIAVPEQVALIGIDNDPLTRTLTRVPLSSVIQGTETMGRTAARLLHQLLHGMPSSGTHILIPPDAVNVQASSLHQPLGDPYVMQALLFIRQYACQGIKTAQVAAYVGVSRSALESHFRRVRGCSVHDEILRFKLAAAAHGLENTDSAIADIARDCGFRSAQYLHTVFRREFGCTPREYLQGANAALQ”, the “soluble on expression in E. coli” value is on record as “not soluble”.

On to “MKTYEVGALLEAANQRDTKKVKEILQDTTYQVDEVDTEGNTPLNIAVHNNDIEIAKALIDRGADINLQNSISDSPYLYAGAQGRTEILAYMLKHATPDLNKHNRYGGNALIPAAEKGHIDNVKLLLEDGREDIDFQNDFGYTALIEAVGLREGNQLYQDIVKLLMENGADQSIKDNSGRTAMDYANQKGYTEISKILAQYN”, for which the “soluble on expression in E. coli” value is on record as “soluble”.

With “MKVAIVHNSEEKSKQVTKQLTTLLEQNQIQIDNRQPELVISVGGDGTLLSAFHRFNHLLNEVSFLGVHTGHLGFYTDWRDYELKELVESLCIHREKSTSYPLLDVRIRFRDGKPDKHFLALNESTIKRGNRTMVGDVFIKDELFERFRGDGLSISTPTGSTAYNKSIGGAVLHPSINAFQLTEIASLNNRVFRTLGSPIVIAHTEWLEIKLQESDDYFVTVDQLDIYQENIASVCYRIADERIHFASYRHMHFWHRVKDAFIGEDLEHHHHHH”, the “soluble on expression in E. coli” value is given as “soluble”.

Regarding “MKVEEILEKALELVIPDEEEVRKGREAEEELRRRLDELGVEYVFVGSYARNTWLKGSLEIDVFLLFPEEFSKEELRERGLEIGKAVLDSYEIRYAEHPYVHGVVKGVEVDVVPCYKLKEPKNIKSAVDRTPFHHKWLEGRIKGKENEVRLLKGFLKANGIYGAEYKVRGFSGYLCELLIVFYGSFLETVKNARRWTRRTVIDVAKGEVRKGEEFFVVDPVDEKRNVAANLSLDNLARFVHLCREFMEAPSLGFFKPKHPLEIEPERLRKIVEERGTAVFAVKFRKPDIVDDNLYPQLERASRKIFEFLERENFMPLRSAFKASEEFCYLLFECQIKEISRVFRRMGPQFEDERNVKKFLSRNRAFRPFIENGRWWAFEMRKFTTPEEGVRSYASTHWHTLGKNVGESIREYFEIISGEKLFKEPVTAELCEMMGVKD”, the “soluble on expression in E. coli” value is recorded as “soluble”.

Take “MKVELVFIPSPGVGHIRATTALAKLLVASDNRLSVTLIVIPSRVSDDASSSVYTNSEDRLRYILLPARDQTTDLVSYIDSQKPQVRAVVSKVAGDVSTRSDSRLAGIVVDMFCTSMIDIADEFNLSAYIFYTSNASYLGLQFHVQSLYDEKELDVSEFKDTEMKFDVPTLTQPFPAKCLPSVMLNKKWFPYVLGRARSFRATKGILVNSVADMEPQALSFFSGGNGNTNIPPVYAVGPIMDLESSGDEEKRKEILHWLKEQPTKSVVFLCFGSMGGFSEEQAREIAVALERSGHRFLWSLRRASPVGNKSNPPPGEFTNLEEILPKGFLDRTVEIGKIISWAPQVDVLNSPAIGAFVTHCGWNSILESLWFGVPMAAWPIYAEQQFNAFHMVDELGLAAEVKKEYRRDFLVEEPEIVTADEIERGIKCAMEQDSKMRKRVMEMKDKLHVALVDGGSSNCALKKFVQDVVDNVP”: the “soluble on expression in E. coli” value is given as “soluble”.

With “MKVETCVYSGYKIHPGHGKRLVRTDGKVQIFLSGKALKGAKLRRNPRDIRWTVLYRIKNKKGTHGQEQVTRKKTKKSVQVVNRAVAGLSLDAILAKRNQTEDFRRQQREQAAKIAKDANKAVRAAKAAANKEKKASQPKTQQKTAKNVKTAAPRVGGKR”, the “soluble on expression in E. coli” value is on record as “not soluble”.

Turning to “MKVGVVGLQGDVSEHIEATKMAIEKLELPGEVIWLKRPEQLKGVDAVIIPGGESTTISRLMQRTGLFEPIKKMVEDGLPVMGTCAGLIMLAKEVLGATPEQKFLEVLDVKVNRNAYGRQVDSFEAPVKLAFDDEPFIGVFIRAPRIVELLSEKVKPLAWLEDRVVGVEQENIIGLEFHPELTNDTRIHEYFLRKVI”, the “soluble on expression in E. coli” value is “soluble”.

“MKVIAVNGGPRKQWNTATLLHKALEGAQSAGAETDLFHLYDLNYKGCISCFGCKRKNSSRIGHCVLKDELTPLLEEVLKCDALLLGSPIYFGNVTGAMRSFLERLFFSLLSYNEGQRTVFPRKVASGFIYTMNVPEDFLPQLGYEAVFKANARSLELLNGPSEYLLATDTYQFDNYSNYEASRFNEQHKAQVRQERFPQDCRQAFDLGAR”: the “soluble on expression in E. coli” value is “not soluble”.

For “MKVIIDGEVRTLKAAWYEDGEVKLIDQRELPDKIKIFSAKNSDDIAYAIKNMVVRGAPAIGVTAAYGLAMASKNGEDMNKAKEKIRATRPTAYDLFKAIRYMEVNGYDMNAARRYAMEIEGRSKKIGELGNELIRNGAKILTHCNAGALAVLDWGTALSPMRIAHNEGKNIFVFVDETRPRLQGAKLTAWELAQEGIDHAIIADNAAGFYMRRKEIDLVIVGADRIASNGDFANKIGTYEKAVLAKVNGIPFYVAAPGSTFDFSIRSGDEIPIEERDENEVLEINGIRIGPNESHSKNPAFDVTPNEYVTGFITEYGIFKPNELNKLKDLMDKDLFMNIK”, the “soluble on expression in E. coli” value is on record as “not soluble”.

In the case of “MKVKNNAQLLMPREKMLKFGISALTDVELLALFLRTGTRGKDVLTLAKEMLENFGSLYGLLTSEYEQFSGVHGIGVAKFAQLKGIAELARRYYNVRMREESPLLSPEMTREFLQSQLTGEEREIFMVIFLDSQHRVITHSRLFSGTLNHVEVHPREIIREAIKINASALILAHNHPSGCAEPSKADKLITERIIKSCQFMDLRVLDHIVIGRGEYVSFAERGWI”, the “soluble on expression in E. coli” value is “not soluble”.

In the case of “MKVKTQFVCNQCAAIFKQWAGQCTQCGAWNSIVEEGIMPENKTLRSGQWANQRSVITAVEDVVMDKIVRMDCGISELNRVLGGGLVYGSVVLIGGDPGIGKSTLLLQTLANLSMQETVLYVTGEESLQQVAMRAQRLGLPLAGLRLLAETQVESIIAQAQKEKPRIIVVDSVQTIFTEAISSAPGGVSQVRESAAQLVRYAKMTNTAIFLVGHVTKEGTLAGPRVLEHMVDSVLYFEGQNDSRFRVIRAIKNRFGAVNELGVFAMTDKGLKEVANPSAIFLSRQPEPTPGSAVMVTWEGSRPMLVEVQALVDEAHGQQAKRVTAGLEHNRLAILLAVLHRHGGIATYDQDVFINVVGGVKVTETASDLALLAAVISSLRNRIFDSETIIFGEVGLAGEIRPVQSGQERIKEAIKHGFKRAIVPFANAPKQQIDSMTVEPVKHLRDVLEKM”, the “soluble on expression in E. coli” value is “not soluble”.

Consider “MKVRAQVPTVKNATNFNMVADSKTAVGSTLENLKAAIAGETGAHAKYTAFAKAAREQGYEQIARLFEATAAAELIHIGLEYALVAEMEPGYEKPTVAAPSAYSCDLNLISGANGEIYETSDMYPAFIRKAQEEGNSKAVHVFTRAKLAESVHAERYLAAYNDIDAPDDDKFHLCPICGYIHKGEDFEKCPICFRPKDTFTAY”, for which the “soluble on expression in E. coli” value is listed as “soluble”.

For the origin of these results see the DeepSol protein solubility set.
